US6787341B2, “Pharmacological targeting of bacterial DNA ligase for treatment and prevention of bacterial infections” (priority 2001, dated 2004)

B1: H23A: E. coli LigA with His23 replaced by alanine (protein, UniProt P15042 1-671, looked up, variant H23A)
DNA ligase: MESIEQQLTELRTTLRHHEYLYAVMDAPEIPDAEYDRLMRELRELETKHPELITPDSPTQRVGAAPLAAFSQIRHEVPMLSLDNVFDEESFLAFNKRVQDRLKNNEKVTWCCELKLDGLAVSILYENGVLVSAATRGDGTTGEDITSNVRTIRAIPLKLHGENIPARLEVRGEVFLPQAGFEKINEDARRTGGKVFANPRNAAAGSLRQLDPRITAKRPLTFFCYGVGVLEGGELPDTHLGRLLQFKKWGLPVSDRVTLCESAEEVLAFYHKVEEDRPTLGFDIDGVVIKVNSLAQQEQLGFVARAPRWAVAFKFPAQEQMTFVRDVEFQVGRTGAITPVARLEPVHVAGVLVSNATLHNADEIERLGLRIGDKVVIRRAGDVIPQVVNVVLSERPEDTREVVFPTHCPVCGSDVERVEGEAVARCTGGLICGAQRKESLKHFVSRRAMDVDGMGDKIIDQLVEKEYVHTPADLFKLTAGKLTGLERMGPKSAQNVVNALEKAKETTFARFLYALGIREVGEATAAGLAAYFGTLEALEAASIEELQKVPDVGIVVASHVHNFFAEESNRNVISELLAEGVHWPAPIVINAEEIDSPFAGKTVVLTGSLSQMSRDDAKARLVELGAKVAGSVSKKTDLVIAGEAAGSKLAKAQELGIEVIDEAEMLRLLGS
B2: E10A: E. coli LigA with Glu10 replaced by alanine in domain Ia (protein, UniProt P15042 1-671, looked up, variant E10A)
DNA ligase: MESIEQQLTALRTTLRHHEYLYHVMDAPEIPDAEYDRLMRELRELETKHPELITPDSPTQRVGAAPLAAFSQIRHEVPMLSLDNVFDEESFLAFNKRVQDRLKNNEKVTWCCELKLDGLAVSILYENGVLVSAATRGDGTTGEDITSNVRTIRAIPLKLHGENIPARLEVRGEVFLPQAGFEKINEDARRTGGKVFANPRNAAAGSLRQLDPRITAKRPLTFFCYGVGVLEGGELPDTHLGRLLQFKKWGLPVSDRVTLCESAEEVLAFYHKVEEDRPTLGFDIDGVVIKVNSLAQQEQLGFVARAPRWAVAFKFPAQEQMTFVRDVEFQVGRTGAITPVARLEPVHVAGVLVSNATLHNADEIERLGLRIGDKVVIRRAGDVIPQVVNVVLSERPEDTREVVFPTHCPVCGSDVERVEGEAVARCTGGLICGAQRKESLKHFVSRRAMDVDGMGDKIIDQLVEKEYVHTPADLFKLTAGKLTGLERMGPKSAQNVVNALEKAKETTFARFLYALGIREVGEATAAGLAAYFGTLEALEAASIEELQKVPDVGIVVASHVHNFFAEESNRNVISELLAEGVHWPAPIVINAEEIDSPFAGKTVVLTGSLSQMSRDDAKARLVELGAKVAGSVSKKTDLVIAGEAAGSKLAKAQELGIEVIDEAEMLRLLGS
B3: Y22A: E. coli LigA with Tyr22 replaced by alanine (protein, UniProt P15042 1-671, looked up, variant Y22A)
DNA ligase: MESIEQQLTELRTTLRHHEYLAHVMDAPEIPDAEYDRLMRELRELETKHPELITPDSPTQRVGAAPLAAFSQIRHEVPMLSLDNVFDEESFLAFNKRVQDRLKNNEKVTWCCELKLDGLAVSILYENGVLVSAATRGDGTTGEDITSNVRTIRAIPLKLHGENIPARLEVRGEVFLPQAGFEKINEDARRTGGKVFANPRNAAAGSLRQLDPRITAKRPLTFFCYGVGVLEGGELPDTHLGRLLQFKKWGLPVSDRVTLCESAEEVLAFYHKVEEDRPTLGFDIDGVVIKVNSLAQQEQLGFVARAPRWAVAFKFPAQEQMTFVRDVEFQVGRTGAITPVARLEPVHVAGVLVSNATLHNADEIERLGLRIGDKVVIRRAGDVIPQVVNVVLSERPEDTREVVFPTHCPVCGSDVERVEGEAVARCTGGLICGAQRKESLKHFVSRRAMDVDGMGDKIIDQLVEKEYVHTPADLFKLTAGKLTGLERMGPKSAQNVVNALEKAKETTFARFLYALGIREVGEATAAGLAAYFGTLEALEAASIEELQKVPDVGIVVASHVHNFFAEESNRNVISELLAEGVHWPAPIVINAEEIDSPFAGKTVVLTGSLSQMSRDDAKARLVELGAKVAGSVSKKTDLVIAGEAAGSKLAKAQELGIEVIDEAEMLRLLGS
B4: D32A: E. coli LigA with Asp32 replaced by alanine (protein, UniProt P15042 1-671, looked up, variant D32A)
DNA ligase: MESIEQQLTELRTTLRHHEYLYHVMDAPEIPAAEYDRLMRELRELETKHPELITPDSPTQRVGAAPLAAFSQIRHEVPMLSLDNVFDEESFLAFNKRVQDRLKNNEKVTWCCELKLDGLAVSILYENGVLVSAATRGDGTTGEDITSNVRTIRAIPLKLHGENIPARLEVRGEVFLPQAGFEKINEDARRTGGKVFANPRNAAAGSLRQLDPRITAKRPLTFFCYGVGVLEGGELPDTHLGRLLQFKKWGLPVSDRVTLCESAEEVLAFYHKVEEDRPTLGFDIDGVVIKVNSLAQQEQLGFVARAPRWAVAFKFPAQEQMTFVRDVEFQVGRTGAITPVARLEPVHVAGVLVSNATLHNADEIERLGLRIGDKVVIRRAGDVIPQVVNVVLSERPEDTREVVFPTHCPVCGSDVERVEGEAVARCTGGLICGAQRKESLKHFVSRRAMDVDGMGDKIIDQLVEKEYVHTPADLFKLTAGKLTGLERMGPKSAQNVVNALEKAKETTFARFLYALGIREVGEATAAGLAAYFGTLEALEAASIEELQKVPDVGIVVASHVHNFFAEESNRNVISELLAEGVHWPAPIVINAEEIDSPFAGKTVVLTGSLSQMSRDDAKARLVELGAKVAGSVSKKTDLVIAGEAAGSKLAKAQELGIEVIDEAEMLRLLGS

Key:
Format in all cases: biochemical
E. coli LigA [1] = settings: for ligase adenylation (ligase-AMP formation) with NAD+: qualitative
Procedure: (§1) FIG. 12A: Aliquots (5 μg) of wild-type (WT) E. coli ligase, N-terminal deletion mutants NΔ38 and NΔ78, and the full-length ligase proteins containing the indicated alanine mutations in domain Ia were analyzed by SDS-PAGE. A Coomassie blue-stained gel is shown. FIG. 12B: Ligase adenylation reaction mixtures (20 μl) containing 50 mM Tris-HCl (pH 7.5), 5 mM DTT, 5 mM MgCl2, 1 μM [α-^32P]NAD^+ and 8 pmol of WT ligase, NΔ38, NΔ78, or the indicated alanine mutants were incubated for 5 min at 37° C. The reaction products were resolved by SDS-PAGE and visualized by autoradiography. FIG. 12C: Nick joining reaction mixtures (20 μl) containing 50 mM Tris-HCl (pH 7.5), 10 mM (NH4)2SO4, 5 mM DTT, 5 mM MgCl2, 20 μM NAD^+, 1 pmol of ^32P-labeled nicked DNA, and increasing amounts of WT ligase or the indicated alanine mutants were incubated for 10 min at 22° C. The extents of ligation are plotted as a function of input protein.
FIG. 15A: Aliquots (5 μg) of wild-type (WT) E. coli ligase and proteins containing the indicated mutations in domain Ia were analyzed by SDS-PAGE. The Coomassie blue-stained gel is shown. The positions and sizes (in kDa) of marker proteins are indicated on the left. FIG. 15B: Ligase adenylation reaction mixtures (20 μl) containing 50 mM Tris-HCl (pH 7.5), 5 mM DTT, 5 mM MgCl2, 1 μM [α-^32P]NAD^+ and 8 pmol of WT ligase or the indicated mutants were incubated for 5 min at 37° C. The reaction products were resolved by SDS-PAGE and visualized by autoradiography.
Reaction mixtures containing (per 20 μl) 50 mM Tris-HCl (pH 7.5), 5 mM DTT, 5 mM MgCl2, 1 μM [^32P-AMP]NAD^+ and 8 pmol of ligase were incubated at 22° C. Aliquots (20 μl) were withdrawn at 15, 30, 60 and 120 s and then quenched immediately with SDS. The products were analyzed by SDS-PAGE. Formation of the ligase-[^32P]AMP adduct is plotted as a function of time.
The first step in DNA ligation involves formation of a covalent enzyme-adenylate intermediate.

E. coli LigA [2] = settings: for phosphodiester formation at pre-adenylated nick: qualitative, magnesium, no added NAD+
Procedure: Reaction mixtures containing 1 pmol of ^32P-labeled nicked DNA-adenylate (AppDNA) and either 8 pmol of wild-type (WT) E. coli ligase, deletion mutants NΔ38 and NΔ78, or the full-length ligase proteins containing the indicated alanine mutations in domain Ia were incubated for 60 min at 22° C. The reaction products were resolved by denaturing PAGE. An autoradiograph of the gel is shown. Control reaction mixtures containing either ^32P-labeled nicked DNA-adenylate (AppDNA) or nicked DNA (pDNA) substrates and no ligase are shown in lanes -. The positions of the pDNA, AppDNA, and ligated 36-mer DNA strands are indicated by arrows on the right. The position of the radiolabeled phosphate of AppDNA is denoted by •. The nicked DNA-adenylate substrate used in the ligation reactions is illustrated at the bottom.
The nicked DNA-adenylate substrate is illustrated in FIG. 13. The DNA-adenylate ligation reaction mixtures (20 μl) contained 50 mM Tris-HCl (pH 7.5), 5 mM DTT, 5 mM MgCl2, 200 fmol of nicked DNA-adenylate substrate, 2 pmol of wild-type or mutant EcoLigA proteins as specified were incubated at 22° C. The sealing reactions were initiated by adding ligase. Aliquots (20 μl) were withdrawn at the times specified and quenched immediately with EDTA and formamide. The products were resolved by denaturing PAGE and the extents of ligation were determined by scanning the gel with a phosphorimager. The extent of strand joining is plotted as a function of reaction time.
The third step of the ligation pathway entails attack of the 3′ OH of the nick on the 5′ PO4 of the DNA-adenylate to form a phosphodiester and release AMP. Step 3 of the ligation reaction was assayed using a pre-adenylated nicked DNA substrate labeled with ^32P on the 5′ PO4 of the DNA-adenylate strand (FIG. 13).

E. coli LigA [3] = settings: for Nick Joining Activity (% of WT): specific activity by protein titration under steady-state conditions, normalized to wild-type ligase
Procedure: as §1
To further probe the role of domain Ia in NAD^+ recognition and nucleotidyl transfer, single alanine substitutions were introduced at six positions in the Ia domain of E. coli LigA. The six mutated Eco ligase residues—Glu10, Tyr22, His23, Asp32, Tyr35, and Asp36—correspond to the six residues that were subjected to alanine scanning mutagenesis in AmEPV ligase (FIG. 11). […] The conserved positions are denoted by shaded boxes in FIG. 11. The Eco ligase mutants E10A, Y22A, H23A, D32A, Y35A, and D36A were produced in E. coli and purified by Ni-agarose chromatography in parallel with wild-type ligase (FIG. 12A).
To evaluate the roles of charge, hydrogen bonding potential, and steric constraints in the functions of the domain Ia residues implicated in the step 1 reaction with NAD^+, the effects of conservative substitutions were tested. Tyr22 and Tyr35 were replaced by Phe and Ser, His23 was changed to Tyr, and Asp32 and Asp36 were mutated to Glu and Asn. The recombinant mutant ligases were purified from soluble bacterial extracts by Ni-agarose chromatography (FIG. 15A). The specific activity of each mutant was determined under steady-state conditions by protein titration and normalized to the specific activity of wild-type ligase.

| Molecule | rate of ligase adenylation (kinetic pattern) (E. coli LigA [1]; 1 μM [32P-AMP]NAD+, 15-120 s) | ligase adenylation (ligase-AMP formation) with NAD+ (E. coli LigA [1]) | phosphodiester formation at pre-adenylated nick (E. coli LigA [2]) | Nick Joining Activity (% of WT) (E. coli LigA [3]) | effect on rate or extent (yield) of phosphodiester formation at a pre-adenylated nick (E. coli LigA [2]) | nick ligation (qualitative) (E. coli LigA [3]) |
| --- | --- | --- | --- | --- | --- | --- |
| B1 | reacted slowly | less active | catalytically active | 10 % of WT | – | – |
| B2 | – | did not affect | catalytically active | 90 % of WT | – | – |
| B3 | – | virtually inert | catalytically active | 0.1 % of WT | no effect | virtually inert |
| B4 | – | virtually inert | catalytically active | 0.2 % of WT | – | virtually inert |
